Experiment [1] has as its target T1, human CD47 on cells (human, UniProt Q08722 19-323).
T1 construct: also called hCD47; CD47 antigen
Description: flow cytometry on human RBC, donor D836.

The target of experiment [2] is T2, cynomolgus CD47 on red blood cells (cynomolgus, UniProt A0A5F8AK49 19-323 (rhesus entry)).
T2 construct: whole, on cells; The assay target is the red blood cell; also called cynomolgus Red Blood Cells
Description: flow cytometry on cynomolgus RBC, donor Cy745.

For experiment [3], the target named is T2, cynomolgus CD47 on red blood cells. Description: flow cytometry on cynomolgus RBC, donor Cy744. (In general: A flow cytometer gives signals particle by particle.)
In experiment [4] the target is T1, human CD47 on cells. Description: flow cytometry on human RBC, donor D837.
The target of experiment [5] is T1, human CD47 on cells. The experiment in a line: flow cytometry on human RBC, donor D834.
In experiment [6] the target is T2, cynomolgus CD47 on red blood cells. The experiment in a line: flow cytometry on cynomolgus RBC, donor Cy747.
Experiment [7] concerns the target T1, human CD47 on cells. The experiment in a line: flow cytometry on human RBC, donor D835.
Experiment [8] has as its target T2, cynomolgus CD47 on red blood cells. The experiment in a line: flow cytometry on cynomolgus RBC, donor Cy746.
For experiment [9], the target named is T3, recombinant extracellular domain of human CD47-Fc fusion protein (human, UniProt Q08722 19-139).
T3 construct: extracellular domain; also called huCD47 ECD; CD47-Fc fusion protein (R&D systems); not shown: Fc part of the bought fusion protein; not described
Description: ELISA on plate-coated recombinant human CD47 extracellular domain-Fc, A450; x axis printed as log10 values under the unit nM. Background: In an ELISA, binding on a coated surface is turned into a signal by an enzyme label.

Experiment [10] addresses T4, human ABCB1 on cells (human, UniProt P08183 1-1280).
T4 construct: whole, on cells; also called MDR1; Pgp
Description: flow cytometry, DX5 CD47 knock-out cells ('DX5 KT14 KO'), MFI.

Experiment [11] addresses T4, human ABCB1 on cells. Description: flow cytometry, DX5 WT cells (carry both ABCB1 and CD47), MFI.
The target in experiment [12] is T1, human CD47 on cells. The experiment in a line: flow cytometry, DX5 B1 KO (ABCB1 knock-out) cells, % positive cells.
Experiment [13] addresses T4, human ABCB1 on cells. The experiment in a line: receptor occupancy assay on A2780ADR cells, curve 'BiS-Direct Binding' (PE anti-human IgG Fc); the cells carry both antigens, the target is named after the receptor whose free signal falls in the same panel.
Experiment [14] has as its target T4, human ABCB1 on cells. Description: flow cytometry, DX5/ADR CD47 WT cells (carry both ABCB1 and CD47), % positive cells.
The target of experiment [15] is T1, human CD47 on cells. The experiment in a line: receptor occupancy assay on A2780ADR cells (carry both ABCB1 and CD47), flow cytometry; free CD47 detected with Alexa 647 anti-hCD47 CC2C6 (competitor), direct binding with PE anti-human IgG Fc.
Experiment [16] concerns the target T4, human ABCB1 on cells. Description: flow cytometry, DX5 CD47 KO cells, % positive cells.
The target in experiment [17] is T4, human ABCB1 on cells. Description: receptor occupancy assay on A2780ADR cells, curve 'BiS-Direct Binding' (PE anti-human IgG Fc); the cells carry both antigens, the target is named after the receptor whose free signal falls in the same panel. This is another data set of the same source.
In experiment [18] the target is T1, human CD47 on cells. Description: flow cytometry on red blood cells (sentence follows Table 9, human RBC).
In experiment [19] the target is T1, human CD47 on cells. Description: flow cytometry, DX5 B1 KO (ABCB1 knock-out) cells, % positive cells. This is another data set of the same source.
The target of experiment [20] is T1, human CD47 on cells. Description: receptor occupancy assay on A2780ADR cells, curve 'BiS-Direct Binding' (PE anti-human IgG Fc); the cells carry both antigens, the target is named after the receptor whose free signal falls most in the same panel.
For experiment [21], the target named is T4, human ABCB1 on cells. The experiment in a line: flow cytometry, DX5 CD47 KO cells, % positive cells. This is another data set of the same source.

Where a chain is given by its changes, count along the chain named.

B1: anti-CD47 monoclonal antibody 5F9 (antibody, IgG1, V domains shown)
VH: QVQLVQSGAEVKKPGASVKVSCKASGYTFTNYNMHWVRQAPGQRLEWMGTIYPGNDDTSYNQKFKDRVTITADTSASTAYMELSSLRSEDTAVYYCARGGYRAMDYWGQGTLVTVSS
VL: DIVMTQSPLSLPVTPGEPASISCRSSQSIVYSNGNTYLGWYLQKPGQSPQLLIYKVSNRFSGVPDRFSGSGSGTDFTLKISRVEADVGVYYCFQGSHVPYTFGQGTKLEIK
notes: also called KT14; 5F9 KT14 mAb
The term EC50 (read off the curve) denotes the midpoint of the concentration-response curve. For B1, the “% Positive” value was 98.9% with human CD47 on cells [1]; 98.8% in experiment [2]; 99% in experiment [3]; 99.1% with human CD47 on cells [4]; 99.1% with human CD47 on cells [5]; 99% in experiment [6]. The results for the “% Positive” value (in the experiment with human CD47 on cells [7]; in experiment [8]) were 98.9% and 99.4%, respectively. Further, the “EC50 (read off the curve)” value in experiment [9] is around 0.003 nM.

B2: 15D3hmz16-1/KT14/MRK16v4a1 (bispecific antibody, V domains shown)
VH 1: EVQLVESGGVVVQPGGSLRLSCAASGFTFSRYTMSWVRQAPGKGLEWVATISSGGGNTYYPDSVKGRFTVSRDNSKNSLYLQMNSLRTEDTALYYCARYYRYDAWFAYWGQGTLVTVSS
VH 2: B1 VH
VL: DIVMTQTPLSSPVTLGQPASISCRSSQSIVHSTGNTYLEWYQQKPGQPPRLLIYKISNRFSGVPDRFSGSGSGTDFTLKISRVEAEDVGVYYCFQASHFPRTFGQGTKLEIK
notes: Human IgG1/kappa bispecific with KK/DD charge-pair Fc; also called 15D3hmz16-1 KK/KT14 DD/MRK16v4a1 Bispecific; 15D316-1 DD/KT14 KK/MRK16v4a1 hmz LC
Turning to B2, the “% Positive” value in experiment [2] worked out at 0.4%; in [3], 0.4%; in experiment [6], 5.7%; in experiment [8] it was 1.5%.

B3: 15D3hmz16-1/KT14/MRK16v4a12 (bispecific antibody, V domains shown)
VH 1: B2 VH 1
VH 2: B1 VH
VL: B2 VL with I56V
notes: Human IgG1/kappa bispecific
Take B3: the “% Positive” value in the experiment with human CD47 on cells [5] amounted to 0.4%.

B4: ABCB1XCD47 KBisP1.1 (15D3 HC KK/KT14 HC DD/MRK16 LC) (bispecific antibody, human IgG1, kappa)
heavy 1: not shown
heavy 2: not shown
light: DVLMTQTPVSLSVSLGDQASISCRSSQSIVHSTGNTYLEWYLQKPGQSPKLLIYKISNRFSGVPDRFSGSGSGTDFTLKISRVEAEDLGVYYCFQASHFPRTFGGGTKLEIKRTVAAPSVFIFPPSDEQLKSGTASVVCLLNNFYPREAKVQWKVDNALQSGNSQESVTEQDSKDSTYSLSSTLTLSKADYEKHKVYACEVTHQGLSSPVTKSFNRGEC
notes: also called KNJYBisP1.1
Turning to B4, the “EC50 (read off the curve)” value with human ABCB1 on cells [10] was around 30 nM; with human ABCB1 on cells [11] it was around 10 nM. The “% Positive” value worked out at 0.3% with human CD47 on cells [1]; 0.7% in [2]; 0.5% in experiment [3]; 0.5% with human CD47 on cells [4]; 0.4% in the experiment with human CD47 on cells [5]; 3.7% in experiment [6]. Moreover, the figures for the “% Positive” value (with human CD47 on cells [7]; in experiment [8]) were 0.4% and 2%, respectively.

B5: KB1-1401 (bispecific antibody, human IgG1, kappa)
heavy chain 1 (anti-ABCB1, DD): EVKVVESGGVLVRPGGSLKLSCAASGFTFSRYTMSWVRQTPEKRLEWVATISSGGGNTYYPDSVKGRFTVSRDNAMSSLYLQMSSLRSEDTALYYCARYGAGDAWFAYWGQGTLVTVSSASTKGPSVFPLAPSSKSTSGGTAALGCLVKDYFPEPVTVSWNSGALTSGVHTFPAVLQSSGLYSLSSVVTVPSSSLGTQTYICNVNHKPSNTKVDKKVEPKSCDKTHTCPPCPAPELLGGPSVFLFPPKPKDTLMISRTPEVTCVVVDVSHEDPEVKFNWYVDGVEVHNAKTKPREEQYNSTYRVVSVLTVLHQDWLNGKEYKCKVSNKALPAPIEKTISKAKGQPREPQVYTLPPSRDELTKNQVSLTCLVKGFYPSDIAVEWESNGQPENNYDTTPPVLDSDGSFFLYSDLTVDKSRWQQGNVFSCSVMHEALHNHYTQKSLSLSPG
heavy chain 2 (anti-CD47, KK): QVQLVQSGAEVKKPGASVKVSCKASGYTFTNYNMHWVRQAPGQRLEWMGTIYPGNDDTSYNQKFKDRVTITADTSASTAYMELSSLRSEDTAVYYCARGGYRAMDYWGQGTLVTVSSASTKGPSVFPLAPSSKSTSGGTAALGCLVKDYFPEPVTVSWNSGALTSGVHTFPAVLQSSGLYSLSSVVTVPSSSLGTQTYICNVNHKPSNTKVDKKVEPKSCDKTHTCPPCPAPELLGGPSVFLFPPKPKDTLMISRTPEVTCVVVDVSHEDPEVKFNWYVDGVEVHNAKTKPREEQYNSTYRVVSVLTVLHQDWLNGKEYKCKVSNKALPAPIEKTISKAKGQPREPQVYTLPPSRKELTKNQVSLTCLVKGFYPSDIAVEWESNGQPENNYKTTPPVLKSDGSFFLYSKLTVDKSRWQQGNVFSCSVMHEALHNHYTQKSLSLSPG
light chain: B4 light
notes: also called 15D3DD KT14KK MRK16
Turning to B5, in the experiment with human CD47 on cells [12], the binding result was “no binding (tested: about 660 nM)”. In addition, in the experiment with human ABCB1 on cells [13], the “EC50 (read off the curve)” value is around 200 nM.

B6: 15D3hmz HIR2/KT14 KbR1/B1VL6/CDR3v2a (bispecific antibody, human IgG1, kappa)
heavy 1: EVQLVESGGVVVQPGGSLRLSCAASGFTFSRYTMSWVRQAPGKGLEWVATISSGGGNTYYPDSVKGRFTVSRDNSKNSLYLQMNSLRTEDTALYYCARYGAGDAWFAYWGQGTLVTVSSASTKGPSVFPLAPSSKSTSGGTAALGCLVKDYFPEPVTVSWNSGALTSGVHTFPAVLQSSGLYSLSSVVTVPSSSLGTQTYICNVNHKPSNTKVDKRVEPKSCDKTHTCPPCPAPELLGGPSVFLFPPKPKDTLMISRTPEVTCVVVDVSHEDPEVKFNWYVDGVEVHNAKTKPREEQYNSTYRVVSVLTVLHQDWLNGKEYKCKVSNKALPAPIEKTISKAKGQPREPQVCTLPPSREEMTKNQVSLSCAVKGFYPSDIAVEWESNGQPENNYKTTPPVLDSDGSFVLVSKLTVDKSRWQQGNVFSCSVMHEALHNHYTQKSLSLSPG
heavy 2: not shown
light: DIVMTQSPLSLPVTPGEPASISCRSSQSLVHSNGNTYLEWYLQKPGQSPQLLIYKVSNRFSGVPDRFSGSGSGTDFTLKISRVEAEDVGVYYCFQGSHFPRTFGQGTKLEIKRTVAAPSVFIFPPSDEQLKSGTASVVCLLNNFYPREAKVQWKVDNALQSGNSQESVTEQDSKDSTYSLSSTLTLSKADYEKHKVYACEVTHQGLSSPVTKSFNRGEC
notes: Humanized ABCB1 x CD47 IgG1 bispecific with a common light chain
Take B6: the “EC50 (read off the curve)” value with human ABCB1 on cells [14] was around 0.8 nM; in the experiment with human ABCB1 on cells [16], around 5 nM. In addition, the binding result in the experiment with human CD47 on cells [15] is recorded as “binds”.

B7: 15D3 hmz HIR2/KT14 KBR1/MRK16v4b (bispecific antibody, IgG1)
heavy 1: B6 heavy 1
heavy 2: not shown
light: B2 VL
notes: Humanized ABCB1 x CD47 IgG1 bispecific with a common light chain; the kappa constant region comes from the general cloning description; not shown: human kappa constant light chain
On to B7, for which the “EC50 (read off the curve)” value with human ABCB1 on cells [10] was around 20 nM; in the experiment with human ABCB1 on cells [11], around 10 nM; with human ABCB1 on cells [17], around 200 nM. Moreover, the binding result with human CD47 on cells [12] is given as “binds”.

B8: 15D3VHhuIgG1DD/KT14KK/B1.89v1.huL1(KV2)hmz (bispecific antibody)
heavy 1: not shown
heavy 2: not shown
light: B6 light with S28T, L29I, N58K, G96A
notes: also called KB1-1421; 15D3VHhuIgG1DD/KT14KK/B1.89v1.huL1(KV2)hmzLC
In the case of B8, the “% Positive” value with human CD47 on cells [1] came to 0.2%; in experiment [2] it was 2.2%; in experiment [3] it was 0.7%; with human CD47 on cells [4], 0.4%; with human CD47 on cells [5], 0.7%; in experiment [6], 26.5%. Besides, the “% Positive” value in the experiment with human CD47 on cells [7] stood at 0.4%; in experiment [8], 15.1%. Besides, the binding result in the experiment with human CD47 on cells [18] is given as “no binding”.

B9: 15D3 hmz HIR2/KT14 KbR1/B1.89v1.huL1(KV2) (bispecific antibody, human IgG1, kappa)
heavy 1: B6 heavy 1
heavy 2: not shown
light: B6 light with S28T, L29I, N58K, G96A
notes: as for B6
In the case of B9, the “EC50 (read off the curve)” value was around 50 nM with human ABCB1 on cells [10]; around 30 nM with human CD47 on cells [19]; around 30 nM in the experiment with human ABCB1 on cells [11]; around 200 nM with human CD47 on cells [20]; around 0.4 nM in the experiment with human ABCB1 on cells [21]. Further, the “% Positive” value in the experiment with human CD47 on cells [1] came to 1.1%; in experiment [2], 10.6%; in [3], 7.9%; in the experiment with human CD47 on cells [4], 1.6%; with human CD47 on cells [5] it was 2%; in experiment [6] it was 74.5%. Further, the figures for the “% Positive” value (in the experiment with human CD47 on cells [7]; in [8]) were 1.4% and 57.7%, respectively.

B10: 15D3 hmz DD/KT14 KK/MRK16 hmz bispecific antibody (bispecific antibody, human IgG1)
heavy 1: not shown
heavy 2: not shown
VL: DIVMTQTPLSSPVTLGQPASISCRSSQSIVHSTGNTYLEWYQQRPGQPPRLLIYKISNRFSGVPDRFSGSGAGTDFTLKISRVEAEDVGVYYCFQASHFPRTFGGGTKLEIKR
notes: the general methods state a human kappa constant region
Consider B10, for which the “EC50 (read off the curve)” value in experiment [9] was around 0.08 nM.

These data come from US20250051471A1 (WILLIAM ROBERT ARATHOON LIVING TRUST DATED AUGUST 29 2016, published 2025).
